Measured values reported in patent US20060073087A1, “Method and apparatus for the formation of particles” (priority 1994, published 2006).

Test: colorimetric beta-lactamase activity assay with Nitrocefin (method of O'Callaghan)
Type: biochemical
Settings: particles formed from aqueous solution with ethanol and supercritical CO2; tested colorimetrically with Nitrocefin
Text: This illustrates the successful use of the method and apparatus of the invention in preparing particulate protein products in a controlled manner, even where the proteins are insoluble in, or incompatible with, organic solvents.

B1: R-TEM beta-lactamase (protein, UniProt P62593 24-286, looked up)
Beta-lactamase TEM: HPETLVKVKDAEDQLGARVGYIELDLNSGKILESFRPEERFPMMSTFKVLLCGAVLSRVDAGQEQLGRRIHYSQNDLVEYSPVTEKHLTDGMTVRELCSAAITMSDNTAANLLLTTIGGPKELTAFLHNMGDHVTRLDRWEPELNEAIPNDERDTTMPAAMATTLRKLLTGELLTLASRQQLIDWMEADKVAGPLLRSALPAGWFIADKSGAGERGSRGIIAALGPDGKPSRIVVIYTTGSQATMDERNRQIAEIGASLIKHW
notes: water-soluble protein R-TEM beta-lactamase, batch number 1TEM1L88, formed into particles by the method of the invention
  enzymatic activity of the particulate product: retained substantial enzymatic activity
